Data published in PMC7570090, “Label-Free Monitoring of Histone Acetylation Using Aptamer-Functionalized Field-Effect Transistor and Quartz Crystal Microbalance Sensors”.

B1: anti-histone H3 aptamer (structured_DNA)
DNA: TTTGAGTGTGGTTCCCGGGAGGGCGCCTACGGGTCCCGTATTCGGATTTGTGC
modifications: 5' 6-mercaptohexyl linker
B2: anti-histone H4 aptamer (structured_DNA)
DNA: TTTTGGTGGGGTTCCCGGGAGGGCGGCTACGGGTTCCGTAATCAGATTTGTGT
modifications: 5' 6-mercaptohexyl linker

Tests used:
[1] = target: histone H3.1 (human, UniProt P68431 1-136); assay: FET and QCM; 140 mM KCl; 33-1950 nM H3; FET: 1 mM phosphate, 140 mM KCl, pH 7.4, 25 C; aptamer/sulfobetaine SAM on gold annealed at 100 C and slowly cooled; QCM 30 MHz, 25 C (buffer not separately sta)
[2] = target: histone H4 (human, UniProt P62805 1-103); assay: FET and QCM; 140 mM KCl; 44-2650 nM H4; FET: 1 mM phosphate, 140 mM KCl, pH 7.4, 25 C; aptamer/sulfobetaine SAM on gold annealed at 100 C and slowly cooled; QCM 30 MHz, 25 C (buffer not separately stated); conditions: protein: commercial; G-quadruplex with K+

Binder | binding result [1] | binding result [2]
B1 | binds | 
B2 |  | binds
